Test results: paper PMC11270970
pKd: −log10 of the molar value.

Molecular target: nucleolin (NuP), recombinant human (Homo sapiens) (UniProt P19338)
Test: SPR
Conditions: SPR with recombinant human nucleolin, buffer, salt, pH and temperature not given in the material

nucleolin (NuP), recombinant human (Homo sapiens), sequence (P19338 2-710): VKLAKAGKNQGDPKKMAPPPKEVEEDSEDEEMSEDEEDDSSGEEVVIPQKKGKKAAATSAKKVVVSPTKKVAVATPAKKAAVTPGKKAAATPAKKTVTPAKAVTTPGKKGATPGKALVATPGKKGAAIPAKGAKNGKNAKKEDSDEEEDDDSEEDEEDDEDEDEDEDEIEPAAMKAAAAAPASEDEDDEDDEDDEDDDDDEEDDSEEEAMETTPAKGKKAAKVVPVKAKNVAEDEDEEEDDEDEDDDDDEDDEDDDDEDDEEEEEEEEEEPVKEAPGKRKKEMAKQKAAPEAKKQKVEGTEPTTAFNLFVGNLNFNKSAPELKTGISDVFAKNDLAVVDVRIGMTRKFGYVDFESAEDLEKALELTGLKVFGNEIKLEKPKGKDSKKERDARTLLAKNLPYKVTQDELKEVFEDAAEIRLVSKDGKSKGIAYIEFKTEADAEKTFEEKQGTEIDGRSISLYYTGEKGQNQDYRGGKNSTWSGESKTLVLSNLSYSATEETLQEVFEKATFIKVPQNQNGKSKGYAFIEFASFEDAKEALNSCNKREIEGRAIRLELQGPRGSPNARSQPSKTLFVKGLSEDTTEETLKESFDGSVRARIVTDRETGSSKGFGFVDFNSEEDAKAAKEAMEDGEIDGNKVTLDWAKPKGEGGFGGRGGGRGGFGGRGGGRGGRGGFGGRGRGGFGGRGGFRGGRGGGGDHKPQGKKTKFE

Row | Sequence | pKd (1:1 Langmuir fit, 5' CH2CH2-(OCH2CH2)3-O linker as listed in Table S1, 5' amino form also listed, form used in SPR not stated) | pKd (5' triptolide via acetal ester linker - amino-CH2CH2-(OCH2CH2)3-O-)
1 | GGTGGTGGTGGTTGTGGTGGTGGTGG [AS1411] | 8.42 | –
2 | GGTGGTGGTGGTTGTGGTGGTGGTGG [AS-TP (TP-amino-AS1411, 6a)] | – | 8.39
